{"source": "IntAct's records for PubMed 17690245", "key": {"[1]": {"molecular_target": "ccnt1_human CCNT1 (UniProt O60563)"}, "[2]": {"molecular_target": "cdk9_human CDK9 (UniProt P50750)"}}, "data": [{"substance": "Bromodomain-containing protein 4 (Homo sapiens) (from UniProt O60885-1) R1337P", "values": [{"measurement": "effect of a mutation on the interaction", "setting": "[1]", "result": "disrupting interaction"}, {"measurement": "effect of a mutation on the interaction", "setting": "[2]", "result": "disrupting interaction"}]}]}
